# Molecular target: the molecule itself
# Experiment: mass photometry; TwoMP mass photometer; 5-20 nM protein in the respective TIRF microscopy assay buffer without methylcellulose; monomer to dimer
row,Protein,stoichiometry N
1,"mScarlet-tagged human NuMA C-terminal fragment aa 1560-2115, mScarlet-NuMA^(C-term L) (domain or fragment, UniProt Q14980-1 1560-2115, looked up, NuMA, human, isoform 1 (NM_006185), aa 1560-2115: part of the predicted coiled-coil and the entire C-terminal tail; Mixed population of monomers and dimers by mass photometry; source: Sf21 insect cells (baculovirus), purified (StrepTrap, TEV cleavage, SEC); not shown: Strep-tag II, N-terminal, cleaved; mScarlet, N-terminal, kept) TSDQASKVQQQKLKAVQAQGGESQQEAQRLQAQLNELQAQLSQKEQAAEHYKLQMEKAKTHYDAKKQQNQELQEQLRSLEQLQKENKELRAEAERLGHELQQAGLKTKEAEQTCRHLTAQVRSLEAQVAHADQQLRDLGKFQVATDALKSREPQAKPQLDLSIDSLDLSCEEGTPLSITSKLPRTQPDGTSVPGEPASPISQRLPPKVESLESLYFTPIPARSQAPLESSLDSLGDVFLDSGRKTRSARRRTTQIINITMAKKLDVEEPDSANSSFYSTRSAPASQASLRATSSTQSLARLGSPDYGNSALLSLPGYRPTTRSSARRSQAGVSSGAPPGRNSFYMGTCQDEPEQLDDWNRIAELQQRNRVCPPHLKTCYPLESRPSLSLGTITDEEMKTGDPQETLRRASMQPIQIAEGTGITTRQQRKRVSLEPHQGPGTPESKKATSCFPRPMTPRDRHEGRKQSTTEAQKKAAPASTKQADRRQSMAFSILNTPKKLGNSLLRRGASKKALSKASPNTRSGTRRSPRIATTTASAATAAAIGATPRAKGKAKHLE",2
2,"AF546- or AF647-labelled SNAP-tagged human NuMA N-terminal fragment (first 705 aa), NuMA^N-term (domain or fragment, UniProt Q14980-1 1-705, looked up, SNAP-tag labelled with SNAP-Surface Alexa Fluor 546 or SNAP-Surface Alexa Fluor 647, nuclear mitotic apparatus protein (NuMA), human, isoform 1 (NM_006185), first 705 aa; two stop codons inserted after aa 705; codon-optimised for S. frugiperda; A PreScission site lies between the SNAP-tag and NuMA; Dimeric by mass photometry; the construct described is SNAP-tagged; also called AF546-NuMA^N-term; AF647-NuMA^N-term; source: Sf21 insect cells (baculovirus), purified (StrepTrap, TEV …)) MTLHATRGAALLSWVNSLHVADPVEAVLQLQDCSIFIKIIDRIHGTEEGQQILKQPVSERLDFVCSFLQKNRKHPSSPECLVSAQKVLEGSELELAKMTMLLLYHSTMSSKSPRDWEQFEYKIQAELAVILKFVLDHEDGLNLNEDLENFLQKAPVPSTCSSTFPEELSPPSHQAKREIRFLELQKVASSSSGNNFLSGSPASPMGDILQTPQFQMRRLKKQLADERSNRDELELELAENRKLLTEKDAQIAMMQQRIDRLALLNEKQAASPLEPKELEELRDKNESLTMRLHETLKQCQDLKTEKSQMDRKINQLSEENGDLSFKLREFASHLQQLQDALNELTEEHSKATQEWLEKQAQLEKELSAALQDKKCLEEKNEILQGKLSQLEEHLSQLQDNPPQEKGEVLGDVLQLETLKQEAATLAANNTQLQARVEMLETERGQQEAKLLAERGHFEEEKQQLSSLITDLQSSISNLSQAKEELEQASQAHGARLTAQVASLTSELTTLNATIQQQDQELAGLKQQAKEKQAQLAQTLQQQEQASQGLRHQVEQLSSSLKQKEQQLKEVAEKQEATRQDHAQQLATAAEEREASLRERDAALKQLEALEKEKAAKLEILQQQLQVANEARDSAQTSVTQAQREKAELSRKVEELQACVETARQEQHEAQAQVAELELQLRSEQQKATEKERVAQEKDQLQEQLQ",2
